# Measurements published in patent US11673916B2, “Neuroprotective peptides and methods of their use” (University of Pittsburgh—Of the Commonwealth System of …, priority 2020, dated 2023).
# Experiments:
# VAPA = target: T1, VAPA (Rattus norvegicus, UniProt Q9Z270); experiment: Peptide spot array (far western) of binding to VAPA, cell-free; conditions: lysate of VAPA-transfected HEK293 cells (FIG. 11A)
# T1 construct: pEGFP-N1-VAPA; 1-242 (Addgene #18874); host or cells: HEK293 cells; whole lysate at 1 mg/ml total protein overlaid on the peptide arrays
# T1 sequence (Q9Z270 8-249): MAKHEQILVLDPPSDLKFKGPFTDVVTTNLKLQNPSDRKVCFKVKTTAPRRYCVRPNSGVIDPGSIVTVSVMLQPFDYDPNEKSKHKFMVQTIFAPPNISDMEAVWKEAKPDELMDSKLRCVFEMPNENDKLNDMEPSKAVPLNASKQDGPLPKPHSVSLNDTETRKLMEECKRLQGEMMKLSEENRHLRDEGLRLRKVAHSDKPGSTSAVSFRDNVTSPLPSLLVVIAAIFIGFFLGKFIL
# Method: Standard 9-fluorenylmethoxy carbonyl chemistry was used to synthesize peptides and spot them onto Celluspots nitrocellulose disks prederivatized with a polyethylene glycerol spacer (Intavis), using the Respep peptide synthesizer. The peptides were spotted on 20 membranes fitted on microscope glass slides (Intavis) using an Intavis MultiPep robot. For hybridization and immunoblotting of arrays, Celluspots slides were washed in TBST (50 mM Tris-HCl, pH 7.4, 150 mM NaCl, 0.1% Tween 20) for 10 minutes, […] blocked for 1 hour at room temperature (RT) with gentle shaking in TBST containing 5% nonfat dry milk. Lysates from HEK293 cells transfected as before (Yeh et al., J Neurosci. 37: 5648-5658, 2017; Yeh et al., Proc Natl Acad Sci USA. 116: 15696-15607, 2019; Dustrude et al., Proc Natl Acad Sci USA. 113: E8443-E8452, 2016) with pEGFP-N1-VAPA; 1-242 (Addgene #18874) were made in 20 mM Tris, 50 mM NaCl, 2 mM MgCl2, 1% Tergitol, 0.5% sodium deoxycholate, 0.1% sodium dodecyl sulfate with protease (Cat #B14002, Bimake), phosphatase (Cat #B15002, Bimake) inhibitor cocktails and 5 U/ml of universal nuclease (Cat #88702, Thermofisher) added extemporaneously. The concentration of lysates was measured by BCA (Cat #23227, Thermofisher) and peptide arrays were incubated with 1 mg/ml of total protein overnight at 4° C. (Yeh et al., J Neurosci. 37: 5648-5658, 2017; Yeh et al., Proc Natl Acad Sci USA. 116: 15696-15607, 2019; Moutal et al., Pain. 158: 2203-2221, 2017). Peptide arrays were washed 3 times for 5 minutes at RT with TBST and incubated with the primary antibody anti-VAPA (RRID AB_2722707; UC Davis/NIH NeuroMab Facility) for 2 hours at RT with gentle shaking in TBST, 5% BSA. After washing with TBST, the membranes were incubated in secondary antibody (IRDye® 800CW goat anti-mouse IgG secondary antibody; RRID AB_621842; Li-Cor) for 45 minutes, washed 3 times for 5 minutes in TBST, and visualized by infrared fluorescence (Li-Cor). Four independent peptide spot arrays were used in this study. Fluorescence intensity was analyzed with Image studio (Li-Cor).
# Kv2.1 and Kv2.2 channels are recruited to ER-PM junctions via C-terminal PRC-mediated interaction with vesicle-associated membrane protein (VAMP)-associated protein A/B (VAPA/B) (Kirmiz, et al., J Neurosci. 38: 7562-7584, 2018; Johnson et al., Proc Natl Acad Sci USA. 115: E7331-E7340, 2018; Johnson, et al., Channels (Austin). 13: 88-101, 2019). This process occurs at non-canonical FFAT binding motifs within the PRC domains of Kv2.1 and Kv2.2 (FIG. 7B), which are recruited to the FFAT binding domain on VAPA/B (Kirmiz, et al., J Neurosci. 38: 7562-7584, 2018; Johnson et al., Proc Natl Acad Sci USA. 115: E7331-E7340, 2018; Johnson, et al., Channels (Austin). 13: 88-101, 2019). […]
# Kv2.1 surface clusters = target: T2, Kv2.1 surface clusters (Rattus norvegicus, UniProt P15387); experiment: Kv2.1 surface cluster density in live Kv2.1-GFP-transfected cortical neurons treated with TAT-linked peptides; type: cell-based; conditions: 10 μM
# T2 construct: expressed in transfected cells; host or cells: primary rat cortical neurons (E16-17 Sprague-Dawley), Lipofectamine 2000
# T2 sequence (P15387 1-857): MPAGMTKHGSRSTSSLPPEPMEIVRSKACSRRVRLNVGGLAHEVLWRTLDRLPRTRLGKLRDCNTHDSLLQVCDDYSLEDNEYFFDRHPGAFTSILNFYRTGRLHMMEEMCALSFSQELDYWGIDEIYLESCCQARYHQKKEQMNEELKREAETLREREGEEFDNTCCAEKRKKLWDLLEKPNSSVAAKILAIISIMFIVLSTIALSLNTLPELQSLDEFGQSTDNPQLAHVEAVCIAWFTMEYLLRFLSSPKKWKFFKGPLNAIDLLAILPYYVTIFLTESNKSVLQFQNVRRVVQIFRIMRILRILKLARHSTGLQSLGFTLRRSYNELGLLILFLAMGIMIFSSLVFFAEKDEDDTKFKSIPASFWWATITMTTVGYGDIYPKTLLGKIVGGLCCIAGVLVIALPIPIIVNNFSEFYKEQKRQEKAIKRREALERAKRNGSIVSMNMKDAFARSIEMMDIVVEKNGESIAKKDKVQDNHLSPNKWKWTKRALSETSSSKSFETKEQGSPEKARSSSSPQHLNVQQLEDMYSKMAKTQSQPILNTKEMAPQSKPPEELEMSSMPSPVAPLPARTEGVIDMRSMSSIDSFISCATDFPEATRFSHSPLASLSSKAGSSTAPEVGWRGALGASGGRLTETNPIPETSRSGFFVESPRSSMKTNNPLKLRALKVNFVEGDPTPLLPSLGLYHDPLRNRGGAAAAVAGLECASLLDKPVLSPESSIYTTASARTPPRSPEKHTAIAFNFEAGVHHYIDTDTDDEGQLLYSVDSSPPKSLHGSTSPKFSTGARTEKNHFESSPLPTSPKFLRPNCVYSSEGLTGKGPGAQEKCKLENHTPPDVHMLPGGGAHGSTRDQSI
# Method: In vitro experiments utilized primary cortical neuronal cultures prepared from embryonic day 16-17 Sprague-Dawley rats of either sex in a protocol described previously (McCord et al., J Physiol (Lond). 592: 3511-3521, 2014). Timed-pregnant rats (Charles River Laboratories, Wilmington, Mass.) were sacrificed by CO2 inhalation. Embryonic cortices were dissociated with trypsin (0.6 mg/mL) and cells plated in sterile 6-well plates on poly-L-ornithine-coated glass coverslips at a density of 670,000 cells per well. Cytosine arabinoside (1-2 μM) was utilized to inhibit non-neuronal proliferation on day 14 in vitro (DIV); cultures were utilized at 21-25 DIV.
# ; Invitrogen, Carlsbad, Calif.). […]; Thermo Fisher Scientific, Waltham, Mass.). […]. Cultures were utilized 18-24 hours following transfection. cDNA amounts for each transfection experiment are described below for each figure. FIG. 1: 0.375 μg/well Kv2.1-GFP plasmid, 0.495 μg/well pcDNA3 vector plasmid, and 0.63 μg/well of either DP-1 or Sc-1, or Kv2.2 CT-expressing plasmid. FIGS. 2, 8, 9, 10, 12: 0.375 μg/well Kv2.1-GFP plasmid, 0.15 μg/well tdTomato plasmid (from Gerhart Ryffel; Addgene plasmid #30530), and 0.975 μg/well pcDNA3 vector plasmid.
# To analyze Kv2.1 distribution in live primary cortical neurons, cells were transfected with both a tdTomato construct and a GFP-tagged Kv2.1 construct (O'Connell, et al., J Neurosci. 26: 9609-9618, 2006) and imaged on a Nikon A1+ confocal microscope (Nikon, Tokyo, Japan). Cells were chosen at random by looking only at the tdTomato signal (561 nm), in order to avoid bias. At least three separate culture dates were used per experiment and three coverslips were transfected per condition each time. For these experiments, “n” refers to the total number of cells imaged. Five to 15 optical sections (0.5 μm) capturing the cell surface were obtained of single cells at 60× magnification (Schulien et al., J Physiol (Lond). 594: 2647-2659, 2016), creating a maximum-intensity projection (MAX-IP) of Kv2.1-GFP distribution. To analyze Kv2.1 distribution in the cerebral cortex of fixed brain slices, 51-54 image fields were obtained at 60× magnification across 18 sections from three fixed mouse brains per treatment (total of 6 animals). Image fields were captured by first focusing on an area of superficial cortex closest to the cover glass. Next, 24 optical sections (0.5 μm) were obtained moving deeper into the tissue in order to produce a 12 μm maximum-intensity projection for analysis of Kv2.1 distribution. Laser power, HV (gain), offset, pinhole size, and all camera parameters were kept identical between all samples in a given experiment. Nikon Instruments Software Advanced Research (NIS-Elements AR) was utilized to analyze GFP-tagged Kv2.1 channel cluster distribution. For live images of transfected neurons, object count parameters were customized to define a Kv2.1 cluster as an area of high intensity GFP fluorescence (compared to background), measuring 0.05 μm^2 or larger (Schulien et al., J Physiol (Lond). 594: 2647-2659, 2016). Kv2.1 cluster density was calculated by normalizing the number of Kv2.1 clusters counted to the somatic area of each neuron (#Kv2.1 clusters/μm^2). Due to high variability in GFP-Kv2.1 expression between individual neurons, intensity thresholding required cell-specific local-background subtraction. In each neuron analyzed, two populations on Kv2.1-GFP expression were first noted—(a) highly localized signals of clustered Kv2.1 channels, and (b) diffuse background staining that represents freely-dispersed, conducting Kv2.1 channels on the plasma membrane. A small region of interest (ROI) within region (b) was set as the background subtraction standard of the image, creating an optimal signal-to-noise ratio for clustered Kv2.1 channels. […]
# [1] = 2 hour treatment, mean±SEM (FIG. 11B)
# [2] = 24 hour treatment, mean±SEM (FIG. 11C)
Substance,binding to VAPA in peptide spot array (VAPA),mean Kv2.1 surface cluster density (Kv2.1 surface clusters; [1]),mean Kv2.1 surface cluster density (Kv2.1 surface clusters; [2])
"EFFDAPE [positive control peptide, a canonical FFAT motif]",strong VAPA binding,–,–
SFISCAT [non-canonical FFAT motif of Kv2.1],no binding,–,–
SFTSCAT [non-canonical FFAT motif of Kv2.2],no binding,–,–
"SIDSFTS [DP-2, seven amino acid declustering peptide from Kv2.2 CT]",no binding,–,–
"YGRKKRRQRRRDEEFAP [TAT-FFATSc, scramble control peptide of TAT-FFAT]",–,0.14±0.02 #Kv2.1 clusters/μm^2 of neuronal soma,0.20±0.01 #Kv2.1 clusters/μm^2 of neuronal soma
"YGRKKRRQRRREFFDAPE [TAT-FFAT, TAT-linked derivative of the canonical FFAT motif]",–,0.15±0.03 #Kv2.1 clusters/μm^2 of neuronal soma,0.19±0.02 #Kv2.1 clusters/μm^2 of neuronal soma
